Laboratory results published in IntAct's records for PubMed 31515488.

B1: Zinc finger protein with KRAB and SCAN domains 4 (Homo sapiens), Q969J2 (parent)
chain: MAREPRKNAALDAQSAEDQTGLLTVKVEKEEASALTAEVRAPCSPARGPERSRQRFRGFRYPEAAGPREALSRLRELCGQWLQPEMHSKEQILELLVLEQFLTILPGNLQSWVREQHPESGEEVVVLLEYLERQLDEPAPQVPVGDQGQELLCCKMALLTQTQGSQSSQCQPMKALFKHESLGSQPLHDRVLQVPGLAQGGCCREDAMVASRLTPGSQGLLKMEDVALTLTPGWTQLDSSQVNLYRDEKQENHSSLVSLGGEIQTKSRDLPPVKKLPEKEHGKICHLREDIAQIPTHAEAGEQEGRLQRKQKNAIGSRRHYCHECGKSFAQSSGLTKHRRIHTGEKPYECEDCGKTFIGSSALVIHQRVHTGEKPYECEECGKVFSHSSNLIKHQRTHTGEKPYECDDCGKTFSQSCSLLEHHKIHTGEKPYQCNMCGKAFRRNSHLLRHQRIHGDKNVQNPEHGESWESQGRTESQWENTEAPVSYKCNECERSFTRNRSLIEHQKIHTGEKPYQCDTCGKGFTRTSYLVQHQRSHVGKKTLSQ
B2: NADPH-dependent diflavin oxidoreductase 1 (Homo sapiens), Q9UHB4 (parent)
chain: MPSPQLLVLFGSQTGTAQDVSERLGREARRRRLGCRVQALDSYPVVNLINEPLVIFVCATTGQGDPPDNMKNFWRFIFRKNLPSTALCQMDFAVLGLGDSSYAKFNFVAKKLHRRLLQLGGSALLPVCLGDDQHELGPDAAVDPWLRDLWDRVLGLYPPPPGLTEIPPGVPLPSKFTLLFLQEAPSTGSEGQRVAHPGSQEPPSESKPFLAPMISNQRVTGPSHFQDVRLIEFDILGSGISFAAGDVVLIQPSNSAAHVQRFCQVLGLDPDQLFMLQPREPDVSSPTRLPQPCSMRHLVSHYLDIASVPRRSFFELLACLSLHELEREKLLEFSSAQGQEELFEYCNRPRRTILEVLCDFPHTAAAIPPDYLLDLIPVIRPRAFSIASSLLTHPSRLQILVAVVQFQTRLKEPRRGLCSSWLASLDPGQGPVRVPLWVRPGSLAFPETPDTPVIMVGPGTGVAPFRAAIQERVAQGQTGNFLFFGCRWRDQDFYWEAEWQELEKRDCLTLIPAFSREQEQKVYVQHRLRELGSLVWELLDRQGAYFYLAGNAKSMPADVSEALMSIFQEEGGLCSPDAAAYLARLQQTRRFQTETWA
B3: Testis-specific protein 10-interacting protein (Homo sapiens), Q3SY00 (parent)
chain: MGQDTDMLNTYQQLVRTPSVRPGQDVRLQAPGTRTGLLKLLSTVSQDKQGCLGSGDGVPNQDLQQRSQSSRQTAKKDRKPRGQSKKGQGSEESEDHFPLLPRKPSFPFQWAWESIATDVRAVLQPSSPTPGHQALPMPSSFSQRQSRRKSTANLPEAHGCCWKTEAQNLKARQQLGAWGGVSIPTGKGELGSEPPSGLQLPGRRPGSGSASDKQVQLQSLGAEEAERGLSSGVLPQRPRRGSISEEEQFSEATEEAEEGEHRTPCRRRAGCQRKGQISGEEASDEGEVQGQSQGSSPSFNNLRRRQWRKTRAKELQGPWDLEKLHRQLQRDLDCGPQKLPWKTLRAAFQASKRNGKAYASGYDETFVSANLPNRTFHKRQEATRSLLQAWERQRQEERQQAELRRARTQHVQRQVAHCLAAYAPRGSRGPGAAQRKLEELRRQERQRFAEYQAELQGIQHRVQARPFLFQQAMQANARLTVTRRFSQVLSALGLDEEQLLSEAGKVDREGTPRKPRSHRSMGVRMEHSPQRPPRTEPTGSQPDRHYNPSLDPECSP
B4: PIH1 domain-containing protein 2 (Homo sapiens), Q8WWB5 (parent)
chain: METSSKGLLTQVTQFWNLLDDLAQSDPEGYEKFIQQQLKEGKQLCAAPEPQLCLQTRILKPKEKILFINLCQWTRIPAPQSTTHPVPLTVGKPEDTTEISDAYTVIDVAYNPDVLHAAEKDQVKKNQLIQMAMKCIEEKFQFTLSHSYHITKFRIKGSIQRMKQNLMGIQTDSIDLREKMRRELTLGQIRSSTMSNPDHFPQLLLPKDQVSGKAVCLIEEISSTEIQVEMKMPAYELKIVHDHSEKPLKIELKVELPGINSVSLCDLSVSEDDLLIEVSEKYRLHLNLPKLIDTEMTTAKFIKEKSTLIITMPLV
partner: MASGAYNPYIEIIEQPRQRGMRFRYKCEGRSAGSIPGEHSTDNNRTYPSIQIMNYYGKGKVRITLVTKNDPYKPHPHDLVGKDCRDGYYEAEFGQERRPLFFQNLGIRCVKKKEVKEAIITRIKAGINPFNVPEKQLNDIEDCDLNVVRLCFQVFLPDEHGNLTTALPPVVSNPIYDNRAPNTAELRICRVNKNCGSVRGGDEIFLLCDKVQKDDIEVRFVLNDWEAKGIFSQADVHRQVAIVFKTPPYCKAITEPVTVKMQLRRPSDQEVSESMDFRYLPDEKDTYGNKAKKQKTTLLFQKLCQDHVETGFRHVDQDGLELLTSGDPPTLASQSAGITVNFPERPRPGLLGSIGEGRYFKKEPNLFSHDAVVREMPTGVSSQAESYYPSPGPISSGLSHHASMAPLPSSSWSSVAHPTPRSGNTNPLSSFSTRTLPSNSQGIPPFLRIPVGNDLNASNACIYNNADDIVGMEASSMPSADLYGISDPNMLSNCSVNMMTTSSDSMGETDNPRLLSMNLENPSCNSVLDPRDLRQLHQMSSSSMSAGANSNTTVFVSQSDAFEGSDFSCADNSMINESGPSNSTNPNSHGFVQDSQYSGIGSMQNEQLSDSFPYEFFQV
B5: Keratin, type I cuticular Ha8 (Homo sapiens), O76015 (parent)
chain: MTSSYSSSSCPLGCTMAPGARNVSVSPIDIGCQPGAEANIAPMCLLANVAHANRVRVGSTPLGRPSLCLPPTCHTACPLPGTCHIPGNIGICGAYGENTLNGHEKETMQFLNDRLANYLEKVRQLEQENAELEATLLERSKCHESTVCPDYQSYFHTIEELQQKILCSKAENARLIVQIDNAKLAADDFRIKLESERSLRQLVEADKCGTQKLLDDATLAKADLEAQQESLKEEQLSLKSNHEQEVKILRSQLGEKLRIELDIEPTIDLNRVLGEMRAQYEAMLETNRQDVEQWFQAQSEGISLQDMSCSEELQCCQSEILELRCTVNALEVERQAQHTLKDCLQNSLCEAEDRFGTELAQMQSLISNVEEQLSEIRADLERQNQEYQVLLDVKTRLENEIATYRNLLESEDCKLPCNPCSTSPSCVTAPCAPRPSCGPCTTCGPTCGASTTGSRF

Variants of: B1
Details: with zsc32_human ZSCAN32, Q9NX65
zsc32_human ZSCAN32, Q9NX65, sequence (Q9NX65 whole entry): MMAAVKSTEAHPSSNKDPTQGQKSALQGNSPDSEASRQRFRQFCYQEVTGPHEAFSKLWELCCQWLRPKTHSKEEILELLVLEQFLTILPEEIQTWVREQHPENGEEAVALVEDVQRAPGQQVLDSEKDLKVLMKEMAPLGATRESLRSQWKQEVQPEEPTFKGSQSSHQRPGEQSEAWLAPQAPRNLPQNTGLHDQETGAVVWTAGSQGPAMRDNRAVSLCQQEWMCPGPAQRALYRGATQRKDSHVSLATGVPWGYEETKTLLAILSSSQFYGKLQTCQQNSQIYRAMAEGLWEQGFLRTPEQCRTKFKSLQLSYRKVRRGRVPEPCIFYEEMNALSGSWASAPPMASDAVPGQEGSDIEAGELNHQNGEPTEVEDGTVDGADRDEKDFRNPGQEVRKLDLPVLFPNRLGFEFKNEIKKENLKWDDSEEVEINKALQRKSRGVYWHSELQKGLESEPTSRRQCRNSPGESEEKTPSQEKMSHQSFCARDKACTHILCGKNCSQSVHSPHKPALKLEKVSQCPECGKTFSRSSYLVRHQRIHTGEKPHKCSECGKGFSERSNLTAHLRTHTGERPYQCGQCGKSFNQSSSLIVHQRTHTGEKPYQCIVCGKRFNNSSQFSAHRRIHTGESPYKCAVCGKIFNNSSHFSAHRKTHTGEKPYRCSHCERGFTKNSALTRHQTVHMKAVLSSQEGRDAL

Row | Variant | effect of a mutation on the interaction
1 | S33F | with no effect
2 | G79R | with no effect

Variants of: B1
Details: with zksc7_human ZKSCAN7, Q9P0L1
zksc7_human ZKSCAN7, Q9P0L1, sequence (Q9P0L1 whole entry): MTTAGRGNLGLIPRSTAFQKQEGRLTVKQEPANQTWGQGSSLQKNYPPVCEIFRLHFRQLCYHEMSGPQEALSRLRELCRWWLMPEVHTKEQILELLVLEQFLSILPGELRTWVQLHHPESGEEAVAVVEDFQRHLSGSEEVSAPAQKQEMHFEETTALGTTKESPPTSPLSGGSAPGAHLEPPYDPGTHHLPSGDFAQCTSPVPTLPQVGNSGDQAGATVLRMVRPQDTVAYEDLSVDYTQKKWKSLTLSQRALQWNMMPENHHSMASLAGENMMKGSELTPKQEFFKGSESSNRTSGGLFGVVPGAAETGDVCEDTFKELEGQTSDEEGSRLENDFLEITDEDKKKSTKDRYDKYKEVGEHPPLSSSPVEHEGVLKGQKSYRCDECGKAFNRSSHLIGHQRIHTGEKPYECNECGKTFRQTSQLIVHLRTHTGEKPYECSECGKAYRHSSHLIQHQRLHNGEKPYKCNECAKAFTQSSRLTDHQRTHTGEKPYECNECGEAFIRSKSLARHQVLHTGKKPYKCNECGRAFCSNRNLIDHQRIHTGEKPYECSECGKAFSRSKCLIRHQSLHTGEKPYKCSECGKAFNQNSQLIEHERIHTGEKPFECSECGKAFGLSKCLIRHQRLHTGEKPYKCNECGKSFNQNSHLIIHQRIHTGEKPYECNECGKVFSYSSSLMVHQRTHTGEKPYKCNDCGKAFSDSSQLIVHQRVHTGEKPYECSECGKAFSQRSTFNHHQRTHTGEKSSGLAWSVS

Row | Variant | effect of a mutation on the interaction
3 | S33F | with no effect
4 | G79R | with no effect

Variants of: B1
Details: with znf24_human ZNF24, P17028
znf24_human ZNF24, P17028, sequence (P17028 whole entry): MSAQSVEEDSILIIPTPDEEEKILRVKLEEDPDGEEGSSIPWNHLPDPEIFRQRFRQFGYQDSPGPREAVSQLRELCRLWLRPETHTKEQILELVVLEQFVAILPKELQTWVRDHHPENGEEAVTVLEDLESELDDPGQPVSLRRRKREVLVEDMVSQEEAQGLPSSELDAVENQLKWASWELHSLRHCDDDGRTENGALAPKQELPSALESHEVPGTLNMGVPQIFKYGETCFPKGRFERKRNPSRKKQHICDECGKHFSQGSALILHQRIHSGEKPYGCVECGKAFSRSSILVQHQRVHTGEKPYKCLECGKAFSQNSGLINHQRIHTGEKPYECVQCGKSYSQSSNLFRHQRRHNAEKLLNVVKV

Row | Variant | effect of a mutation on the interaction
5 | S33F | with no effect
6 | G79R | disrupting interaction strength

Variants of: B1
Details: with zn496_human ZNF496, Q96IT1
zn496_human ZNF496, Q96IT1, sequence (Q96IT1 whole entry): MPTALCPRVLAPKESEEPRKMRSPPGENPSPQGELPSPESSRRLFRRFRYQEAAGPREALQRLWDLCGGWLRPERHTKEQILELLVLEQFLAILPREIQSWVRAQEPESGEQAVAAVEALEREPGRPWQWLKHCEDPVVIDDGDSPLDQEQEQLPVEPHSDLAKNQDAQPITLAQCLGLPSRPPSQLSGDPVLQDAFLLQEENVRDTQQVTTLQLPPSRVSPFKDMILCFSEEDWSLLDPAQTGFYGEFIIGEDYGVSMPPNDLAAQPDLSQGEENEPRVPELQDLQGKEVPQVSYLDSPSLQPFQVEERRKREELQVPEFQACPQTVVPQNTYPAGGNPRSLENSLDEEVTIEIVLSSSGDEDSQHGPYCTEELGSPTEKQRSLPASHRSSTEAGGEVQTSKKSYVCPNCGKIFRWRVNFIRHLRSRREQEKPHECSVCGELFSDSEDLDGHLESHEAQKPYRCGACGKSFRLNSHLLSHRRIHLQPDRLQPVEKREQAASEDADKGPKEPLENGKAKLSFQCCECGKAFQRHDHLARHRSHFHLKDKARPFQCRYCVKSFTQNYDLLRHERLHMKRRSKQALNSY

Row | Variant | effect of a mutation on the interaction
7 | S33F | with no effect
8 | G79R | with no effect

Variants of: B2
Details: with ccd33_human CCDC33, Q8N5R6

Row | Variant | effect of a mutation on the interaction
9 | V153I | with no effect

Variants of: B2
Details: with cpin1_human CIAPIN1, Q6FI81

Row | Variant | effect of a mutation on the interaction
10 | V153I | with no effect

Variants of: B2
Details: with itf2_human TCF4, P15884

Row | Variant | effect of a mutation on the interaction
11 | V153I | with no effect

Variants of: B2
Details: with mtus2_human MTUS2, Q5JR59
Target sequence in this assay (Q5JR59 whole entry): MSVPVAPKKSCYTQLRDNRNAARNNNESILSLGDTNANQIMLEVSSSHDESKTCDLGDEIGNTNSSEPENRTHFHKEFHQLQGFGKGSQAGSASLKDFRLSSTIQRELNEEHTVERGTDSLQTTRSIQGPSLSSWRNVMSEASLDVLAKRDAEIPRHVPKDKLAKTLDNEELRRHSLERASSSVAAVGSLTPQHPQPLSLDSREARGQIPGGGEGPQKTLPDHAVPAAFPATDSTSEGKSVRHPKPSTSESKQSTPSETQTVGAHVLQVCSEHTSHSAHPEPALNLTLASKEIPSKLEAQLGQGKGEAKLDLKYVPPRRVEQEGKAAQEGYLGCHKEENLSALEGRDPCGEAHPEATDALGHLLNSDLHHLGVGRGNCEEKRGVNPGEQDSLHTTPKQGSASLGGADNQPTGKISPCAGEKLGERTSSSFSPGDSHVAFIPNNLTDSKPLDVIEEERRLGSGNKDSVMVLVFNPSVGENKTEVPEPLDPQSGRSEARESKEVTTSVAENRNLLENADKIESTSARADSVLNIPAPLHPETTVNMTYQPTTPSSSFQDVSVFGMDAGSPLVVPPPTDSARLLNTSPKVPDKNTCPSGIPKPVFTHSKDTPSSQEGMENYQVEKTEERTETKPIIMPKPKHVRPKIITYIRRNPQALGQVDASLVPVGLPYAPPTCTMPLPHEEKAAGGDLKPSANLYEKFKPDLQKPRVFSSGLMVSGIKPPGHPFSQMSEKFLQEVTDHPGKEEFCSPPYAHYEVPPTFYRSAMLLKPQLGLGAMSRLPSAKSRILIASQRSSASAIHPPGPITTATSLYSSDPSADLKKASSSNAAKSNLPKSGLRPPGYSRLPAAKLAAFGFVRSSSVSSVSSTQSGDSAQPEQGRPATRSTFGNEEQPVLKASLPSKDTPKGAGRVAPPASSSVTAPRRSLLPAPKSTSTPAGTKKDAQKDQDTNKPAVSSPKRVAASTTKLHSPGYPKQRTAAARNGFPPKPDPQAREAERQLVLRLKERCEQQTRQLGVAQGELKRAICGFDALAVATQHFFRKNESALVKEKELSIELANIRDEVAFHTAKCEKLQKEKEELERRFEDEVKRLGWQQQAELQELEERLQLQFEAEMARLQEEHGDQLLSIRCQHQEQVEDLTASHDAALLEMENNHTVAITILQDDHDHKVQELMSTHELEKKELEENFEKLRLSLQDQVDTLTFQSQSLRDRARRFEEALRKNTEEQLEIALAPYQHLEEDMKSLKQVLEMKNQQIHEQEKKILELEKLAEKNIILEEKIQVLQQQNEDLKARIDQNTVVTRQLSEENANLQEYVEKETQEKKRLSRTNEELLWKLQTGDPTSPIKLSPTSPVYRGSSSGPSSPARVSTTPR

Row | Variant | effect of a mutation on the interaction
12 | P281L | with no effect

Variants of: B3
Details: with mtus2_human MTUS2, Q5JR59
Target sequence in this assay (Q5JR59 whole entry): as above

Row | Variant | effect of a mutation on the interaction
13 | S242L | with no effect
14 | R303Q | with no effect
15 | H96L | with no effect
16 | R237S | with no effect
17 | S292N | with no effect
18 | R305P | with no effect
19 | D25E | with no effect
20 | V215A | with no effect

Variants of: B3
Details: with cep70_human CEP70, Q8NHQ1
cep70_human CEP70, Q8NHQ1, sequence (Q8NHQ1 whole entry): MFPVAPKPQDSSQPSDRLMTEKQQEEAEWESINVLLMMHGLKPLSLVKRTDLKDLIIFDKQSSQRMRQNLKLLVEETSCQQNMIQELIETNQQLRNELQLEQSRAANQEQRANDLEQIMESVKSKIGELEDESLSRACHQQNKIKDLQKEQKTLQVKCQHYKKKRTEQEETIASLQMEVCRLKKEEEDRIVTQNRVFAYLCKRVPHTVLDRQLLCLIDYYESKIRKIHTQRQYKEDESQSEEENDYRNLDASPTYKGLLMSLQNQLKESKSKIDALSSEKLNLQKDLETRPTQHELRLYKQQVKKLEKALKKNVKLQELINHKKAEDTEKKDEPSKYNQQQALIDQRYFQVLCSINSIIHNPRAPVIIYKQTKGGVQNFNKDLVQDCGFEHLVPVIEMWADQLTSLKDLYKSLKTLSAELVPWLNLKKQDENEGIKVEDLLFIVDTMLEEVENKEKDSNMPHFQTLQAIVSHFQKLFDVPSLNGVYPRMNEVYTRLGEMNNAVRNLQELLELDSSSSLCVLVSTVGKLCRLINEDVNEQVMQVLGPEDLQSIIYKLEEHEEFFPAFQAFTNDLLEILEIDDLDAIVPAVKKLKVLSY

Row | Variant | effect of a mutation on the interaction
21 | S242L | with no effect
22 | A210V | with no effect

Variants of: B4
Details: with rel_human REL

Row | Variant | effect of a mutation on the interaction
23 | A117V | with no effect
24 | A102D | with no effect

Variants of: B5
Details: with k2c4_human KRT4, P19013

Row | Variant | effect of a mutation on the interaction
25 | A205S | with no effect

Variants of: B5
Details: with k2c8_human KRT8, P05787

Row | Variant | effect of a mutation on the interaction
26 | A205S | with no effect

Variants of: B5
Details: with KRT6A

Row | Variant | effect of a mutation on the interaction
27 | A205S | with no effect

Variants of: B5
Details: with k22e_human KRT2, P35908
k22e_human KRT2, P35908, sequence (P35908 whole entry): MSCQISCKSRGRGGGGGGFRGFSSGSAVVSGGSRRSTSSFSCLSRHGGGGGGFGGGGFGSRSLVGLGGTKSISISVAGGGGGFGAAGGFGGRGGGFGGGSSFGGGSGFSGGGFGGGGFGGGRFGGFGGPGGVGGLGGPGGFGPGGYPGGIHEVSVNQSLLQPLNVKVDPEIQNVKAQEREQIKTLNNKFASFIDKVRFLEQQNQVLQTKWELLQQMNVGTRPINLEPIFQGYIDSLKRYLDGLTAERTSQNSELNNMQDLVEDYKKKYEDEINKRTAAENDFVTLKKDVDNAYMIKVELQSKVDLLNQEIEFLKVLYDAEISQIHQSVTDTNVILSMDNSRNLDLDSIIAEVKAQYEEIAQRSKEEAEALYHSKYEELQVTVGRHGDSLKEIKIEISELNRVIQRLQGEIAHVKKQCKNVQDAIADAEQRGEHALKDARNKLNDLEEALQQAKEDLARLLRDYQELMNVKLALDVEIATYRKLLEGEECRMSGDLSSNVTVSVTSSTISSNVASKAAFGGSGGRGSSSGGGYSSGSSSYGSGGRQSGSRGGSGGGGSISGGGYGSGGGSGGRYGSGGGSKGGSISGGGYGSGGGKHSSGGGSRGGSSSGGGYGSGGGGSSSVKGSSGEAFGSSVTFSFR

Row | Variant | effect of a mutation on the interaction
28 | A205S | with no effect
